Like-named read-outs stand apart in the source and are kept apart here.
How the values were obtained:
Assay in all cases: cell-based or functional assay
[1] = molecular target: RSV F protein of RS virus subtype A strains (A2, X and 2006-1)
[2] = molecular target: RSV F protein of RS virus subtype B strains (2007-2 and Z)
[3] = molecular target: RSV F protein of RS virus subtype A strains (A2, X and 2006-1); remark: listed apart in the source
[4] = molecular target: RSV F protein of RS virus subtype B strains (2007-2 and Z); remark: listed apart in the source

Binder | IC50 values (ng/ml), RS virus neutralization, HEp2 cells, subtype A [1] | IC50 values (ng/ml), RS virus neutralization, Vero cells, subtype A [1] | IC50 values (ng/ml), RS virus neutralization, HEp2 cells, subtype B [2] | IC50 values (ng/ml), RS virus neutralization, Vero cells, subtype B [2] | IC50 values (ng/ml), RS virus neutralization, HEp2 cells, subtype A [3] | IC50 values (ng/ml), RS virus neutralization, Vero cells, subtype A [3] | IC50 values (ng/ml), RS virus neutralization, HEp2 cells, subtype B [4] | IC50 values (ng/ml), RS virus neutralization, Vero cells, subtype B [4]
AM16 (antibody, V domains shown) VH: EVQLVETGGGLAQPGGSLRLSCAASGFTFSSYNMNWVRQAPGKGLEWVSHISAGSSYIYYSDSVKGRFTVSRDNVRNSVYLQMNSLRAADTAVYYCAREDYGPGNYYSPNWFDPWGQGTLVTVSS VL: QSVVTQPPSVSGAPGQRVTISCTGSSSNIGAGYDVHWYQQLPGTAPKLLIYGNTNRPSGVSDRFSGSKSGTSASLAITGLQAEDEADYYCHSYDRSLSGSVFGGGTKLTV | 286 ng/mL | 304 ng/mL | 125 ng/mL | 126 ng/mL | – | – | – | –
D25 (B63D10-D25), monoclonal antibody from the B cell line (culture supernatant or purified from it) (antibody, V domains shown) VH: QVQLVQSGAEVKKPGSSVMVSCQASGGPLRNYIINWLRQAPGQGPEWMGGIIPVLGTVHYAPKFQGRVTITADESTDTAYIHLISLRSEDTAMYYCATETALVVSTTYLPHYFDNWGQGTLVTVSS VL: DIQMTQSPSSLSAAVGDRVTITCQASQDIVNYLNWYQQKPGKAPKLLIYVASNLETGVPSRFSGSGSGTDFSLTISSLQPEDVATYYCQQYDNLPLTFGGGTKVEIKRTV | 3.3 ng/mL | 3.4 ng/mL | 14.3 ng/mL | 9 ng/mL | – | – | – | –
recombinant purified D25 (rD25), expressed in 293T cells (antibody, V domains shown) VH: QVQLVQSGAEVKKPGSSVMVSCQASGGPLRNYIINWLRQAPGQGPEWMGGIIPVLGTVHYAPKFQGRVTITADESTDTAYIHLISLRSEDTAMYYCATETALVVSTTYLPHYFDNWGQGTLVTVSS VL: DIQMTQSPSSLSAAVGDRVTITCQASQDIVNYLNWYQQKPGKAPKLLIYVASNLETGVPSRFSGSGSGTDFSLTISSLQPEDVATYYCQQYDNLPLTFGGGTKVEIKRTV | 2.1 ng/mL | 1.6 ng/mL | 1.9 ng/mL | 0.3 ng/mL | – | – | – | –
recombinant GENEART codon optimized D25 (rD25 GA) (antibody, V domains shown) VH: QVQLVQSGAEVKKPGSSVMVSCQASGGPLRNYIINWLRQAPGQGPEWMGGIIPVLGTVHYAPKFQGRVTITADESTDTAYIHLISLRSEDTAMYYCATETALVVSTTYLPHYFDNWGQGTLVTVSS VL: DIQMTQSPSSLSAAVGDRVTITCQASQDIVNYLNWYQQKPGKAPKLLIYVASNLETGVPSRFSGSGSGTDFSLTISSLQPEDVATYYCQQYDNLPLTFGGGTKVEIKR | – | – | – | – | 5.3 ng/mL | 3.2 ng/mL | 1.3 ng/mL | 1.2 ng/mL
AM14 (antibody, V domains shown) VH: EVQLVESGGGVVQPGRSLRLSCAASGFSFSHYAMHWVRQAPGKGLEWVAVISYDGENTYYADSVKGRFSISRDNSKNTVSLQMNSLRPEDTALYYCARDRIVDDYYYYGMDVWGQGATVTVSS VL: DIQMTQSPSSLSASVGDRVTITCQASQDIKKYLNWYHQKPGKVPELLMHDASNLETGVPSRFSGRGSGTDFTLTISSLQPEDIGTYYCQQYDNLPPLTFGGGTKVEIKRTV | 21.5 ng/mL | 15.2 ng/mL | 6.7 ng/mL | 1.1 ng/mL | – | – | – | –
AM23 (antibody, V domains shown) VH: EVQLVESGGNVVKPGTSLRLSCAATGFNFHNYGMNWVRQAPGKGLEWVAVVWYDGSKKYYADSVTGRFAISRDNSKNTLYLQMNSLRVEDTAVYYCVRDKVGPTPYFDSWGQGTLVTVSS VL: SYVLTQPPSVSLAPGGTAAITCGRNNIGSETVHWYQQKPGQAPVLVVYDDDDRPSGIPERFSGSNSGNTATLTISRVEAGDEADYYCQVWDRSNYHQVFGGGTKLTV | 25 ng/mL | 19.4 ng/mL | 191 ng/mL | 169 ng/mL | – | – | – | –

— patent US20160244509A1
